# Laboratory results from paper PMC7141386, “Extracellular CIRP induces macrophage endotoxin tolerance through IL-6R–mediated STAT3 activation” (JCI Insight, 2020).
# Substitutions are numbered along the chain they refer to.
# T1: recombinant human IL-6R alpha protein Leu20-Asp358 (human, UniProt P08887 20-358)
# T1 construct: human IL-6 receptor alpha, Leu20-Asp358; no tags in the Biacore assay; also called rhIL-6R; IL-6 receptor; source: bought: R&D Systems, Bio-Techne; Spodoptera frugiperda Sf21, baculovirus-derived
# T1 sequence (looked up): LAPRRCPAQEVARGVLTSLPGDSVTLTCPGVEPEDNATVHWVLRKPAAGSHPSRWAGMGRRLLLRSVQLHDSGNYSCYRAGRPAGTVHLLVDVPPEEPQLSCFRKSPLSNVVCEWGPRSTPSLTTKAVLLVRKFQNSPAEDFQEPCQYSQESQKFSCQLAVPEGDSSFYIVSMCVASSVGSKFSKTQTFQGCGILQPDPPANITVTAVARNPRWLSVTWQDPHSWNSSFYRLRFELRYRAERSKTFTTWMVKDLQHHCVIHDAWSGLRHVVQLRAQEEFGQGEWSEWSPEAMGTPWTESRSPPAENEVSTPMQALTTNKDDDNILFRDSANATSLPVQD
# T2: mouse IL-6 receptor on peritoneal macrophages (mouse (endogenous in peritoneal …, UniProt P22272 20-460))
# T2 construct: IL-6 receptor alpha, mouse, endogenous on peritoneal macrophages, detected with goat anti-mouse IL-6R antibody; also called IL-6Rα; source: endogenous, on murine peritoneal macrophages
# T2 sequence (looked up): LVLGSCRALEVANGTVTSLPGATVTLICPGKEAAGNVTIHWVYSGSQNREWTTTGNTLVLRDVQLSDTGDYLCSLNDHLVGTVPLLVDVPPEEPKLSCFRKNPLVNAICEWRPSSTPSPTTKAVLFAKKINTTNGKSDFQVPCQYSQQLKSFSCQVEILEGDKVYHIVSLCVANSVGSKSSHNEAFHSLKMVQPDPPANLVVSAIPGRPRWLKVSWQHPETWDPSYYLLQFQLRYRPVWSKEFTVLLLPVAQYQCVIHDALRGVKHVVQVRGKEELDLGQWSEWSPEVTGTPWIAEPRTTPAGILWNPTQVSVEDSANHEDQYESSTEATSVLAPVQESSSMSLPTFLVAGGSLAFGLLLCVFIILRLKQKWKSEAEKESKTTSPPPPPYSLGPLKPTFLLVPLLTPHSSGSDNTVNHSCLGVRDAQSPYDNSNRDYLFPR
# B1: recombinant human CIRP (cold-inducible RNA-binding protein) (natural protein, UniProt Q14011 1-172, looked up)
# chain: MASDEGKLFVGGLSFDTNEQSLEQVFSKYGQISEVVVVKDRETQRSRGFGFVTFENIDDAKDAMMAMNGKSVDGRQIRVDQAGKSSDNRSRGYRGGSAGGRGFFRGGRGRGRGFSRGGGDRGYGGNRFESRSGGYGGSRDYYSSRSQSGGYSDRSSGGSYRDSYDSYATHNE
# notes: also called rhCIRP; eCIRP; source: bought: Origene
# B2: recombinant murine CIRP (cold-inducible RNA-binding protein) (natural protein, mouse, UniProt P60824 1-172, looked up)
# chain: B1 chain with S21A, G109S, N126G, S143A, S148G, G150S, S152G, D153Y
# notes: also called rmCIRP
# Assays:
# [1] = molecular target: T1, recombinant human IL-6R alpha protein …; assay: SPR; Biacore 3000; rhIL-6R immobilised on a CM5 chip (amine coupling, 10 mM sodium acetate pH 4.5); rhCIRP as analyte 0-1.0 uM; 1x PBS with 0.01% Tween-20, pH 7.4; 30 uL/min, 25°C; global fit to the Langmuir model for 1:1 binding; details: both partners purified
# [2] = molecular target: T2, mouse IL-6 receptor on peritoneal …; assay: FRET or BRET; peritoneal macrophages in a 96-well plate treated with rmCIRP for 10 minutes at 4°C, fixed with 4% paraformaldehyde, stained with anti-CIRP and anti-IL-6R or anti-CD11b antibodies and Cy3- and Cy5-labelled secondary antibodies; FRET units from cell-associated fluorescence (Biotek Synergy Neo2); details: one partner purified
binder,measurement,setting,value
B1,Kd,[1],98 nM
B2,fold increase in FRET units against the negative control CD11b,[2],17 fold
